Reference: patent publication US20240391950A1, “PEPTIDE CROSSLINKING AGENT AND CROSSLINKED PEPTIDE WHICH IS CROSSLINKED USING SAID CROSSLINKING AGENT” (Kagoshima University, priority 2020, published 2024)
Starred links: 1 amine or outer side, 2 acyl side, 3 side chain; linkers in the order of their positions; H or OH if unused. Positions of bridges follow the written chain, without caps; N, C: chain ends. Residues, ends and D or L forms follow the SMILES beside them. No end group written: not given here. CH2COCH2 = O=C(C[*:1])C[*:2]

What was measured:
human IgG1 = human IgG1 (Homo sapiens, UniProt P01857); experiment: SPR (BIAcore T200) measurement of binding affinity of crosslinked cyclic peptide to immobilized IgG
Chain of human IgG1 (P01857 1-328 limits assumed): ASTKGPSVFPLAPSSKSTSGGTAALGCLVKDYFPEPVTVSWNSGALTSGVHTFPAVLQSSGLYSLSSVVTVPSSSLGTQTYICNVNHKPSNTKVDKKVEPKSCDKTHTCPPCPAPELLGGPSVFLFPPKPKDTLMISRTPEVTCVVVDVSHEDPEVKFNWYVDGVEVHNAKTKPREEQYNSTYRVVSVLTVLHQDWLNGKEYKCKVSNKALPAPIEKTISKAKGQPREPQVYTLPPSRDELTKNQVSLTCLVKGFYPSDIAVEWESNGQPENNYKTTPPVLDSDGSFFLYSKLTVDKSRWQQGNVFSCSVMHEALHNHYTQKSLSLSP
Description: The affinity analysis was performed by the following method. First, a CM5 sensor chip was installed on BIAcoreT200 (GE healthcare), and 0.4 M 1-ethyl-3-(3-dimethylaminopropyl)carbodiimide (EDC) and a 0.1 M sulfo-N-hydroxysuccinimide (sulfo-NHS) solution mixed in equivalent amounts were injected to the sensor chip at a flow rate of […], to thereby activate the sensor chip. Thereafter, IgG was immobilized onto the sensor chip under a condition of a pH of 5.5 (10 mM Na acetate). An HBS-EP buffer (10 mM HEPES, 150 mM NaCl, 0.005% Tween 20, 3 mM EDTA, pH 7.4) was used in measurement, and 15.625, 31.2, 62.5, 125, 250, and 500 nM of peptides were each injected at a flow rate of […] for 180 seconds, to thereby monitor binding reaction. When dissociation reaction was measured, only the buffer was injected for 600 seconds. The interaction parameter was analyzed with BIAevaluation T100 software.
IgG-binding peptide derivatives compared and evaluated are illustrated in FIG. 1.

human serum-derived IgG = experiment: Dynamic binding capacity (DBC) measurement and alkali resistance evaluation of peptide-immobilized column; settings: initial value; 1 mg peptide on 1-mL column, 1 mL/min
Description: Five mL of 1 mM hydrochloric acid was sent to an NHS-activated prepacked column having a volume of 1 mL, and an isopropanol solution in the column was removed. Next, a 10.0 mg/mL peptide solution (dissolved in 100 μL of DMSO) was diluted with a coupling solution (20 mM carbonate buffer, 50 mM sodium chloride, pH 8.3) by 10-fold, 1 mL of the dilution liquid was sent, and immobilization was performed at room temperature for 4 hours. Thereafter, unreacted NHS was blocked by 5 mL of 1 M Tris (pH 8.0) at room temperature for 1 hour. Thereafter, washing with 5 mL of an aqueous 0.1 N NaOH solution was made. Finally, 10 mL of a PBS solution (20 mM phosphate buffer, 150 mM sodium chloride, pH 7.4) was sent, and used in chromatography evaluation.
A column where the amount of immobilization of a peptide was 1 mg was produced by the same method as described above. The column produced was equilibrated with PBS, and 1 mg/mL human serum-derived IgG (manufactured by Sigma-Aldrich Co. LLC) dissolved in PBS was sent at a flow rate of 1 mL/min (retention time 1 min). DBC was indicated as one determined from the amount of a protein added at the time of point where 10% of the absorbance at 280 nm of the sample added was leaked.
Next, 5 mL of an aqueous 0.1 N sodium hydroxide solution was sent to the 1-mL column where 1 mg of the peptide was immobilized. Thereafter, washing with PBS was performed. This cycle was repeated 30 times for the 1,1-dichloroacetone-crosslinked cyclic peptide, and was repeated 10 times for the 1,1-dichloropinacolin-crosslinked cyclic peptide. DBC measurement was performed at a flow rate of 1 mL/min at the 1st to 5th and 10th times of the cycles, and further performed at the 20th and 30th times of the cycles with respect to the 1,1-dichloroacetone-crosslinked cyclic peptide, and thus alkali resistance was evaluated. The variation in DBC was determined based on the measurement results under the assumption that DBC immediately after column production was 100% according to Table 2.
Five mL of a 0.1 M sodium hydroxide solution was sent to the produced 1-mL column where the amount of immobilization of a peptide was 1 mg, and thereafter washing with 5 mL of PBS was performed. These operations were defined as one cycle and treatment of washing with aqueous NaOH solution/washing with PBS was performed 1 to 30 times, and thereafter DBC measurement was performed at a flow rate of 1 mL/min at the intended number of times (1, 2, 3, 4, 5, 10, 20, 30 times).

IgG = settings: Patent Literature 2; read-out: Kd (affinity with IgG); cited from earlier work
human IgG1 (human) [1] = experiment: SPR, BIAcore T200, IgG immobilised on CM5 chip
[2] = biological target: human serum-derived IgG (manufactured by Sigma-Aldrich Co. LLC); experiment: peptide-immobilised column, human serum IgG, 10% breakthrough
human IgG1 (human) [3] = experiment: SPR, BIAcore T200, IgG immobilised on CM5 chip, peptide as analyte
[4] = biological target: human serum-derived IgG (manufactured by Sigma-Aldrich Co. LLC); experiment: 1 mL column with 1 mg peptide immobilised, human serum IgG; 1 wash with 0.1 N NaOH
[5] = biological target: human serum-derived IgG (manufactured by Sigma-Aldrich Co. LLC); experiment: 1 mL column with 1 mg peptide immobilised, human serum IgG; 2 washes with 0.1 N NaOH
[6] = biological target: human serum-derived IgG (manufactured by Sigma-Aldrich Co. LLC); experiment: 1 mL column with 1 mg peptide immobilised, human serum IgG; 5 washes with 0.1 N NaOH
[7] = biological target: human serum-derived IgG (manufactured by Sigma-Aldrich Co. LLC); experiment: 1 mL column with 1 mg peptide immobilised, human serum IgG; 10 washes with 0.1 N NaOH
[8] = biological target: human serum-derived IgG (manufactured by Sigma-Aldrich Co. LLC); experiment: 1 mL column with 1 mg peptide immobilised, human serum IgG, 10% breakthrough; 1 wash with 0.1 N NaOH
[9] = biological target: human serum-derived IgG (manufactured by Sigma-Aldrich Co. LLC); experiment: 1 mL column with 1 mg peptide immobilised, human serum IgG 1 mg/mL at 1 mL/min; 1 wash with 0.1 N NaOH
[10] = biological target: human serum-derived IgG (manufactured by Sigma-Aldrich Co. LLC); experiment: 1 mL column with 1 mg peptide immobilised, human serum IgG, 10% breakthrough; 2 washes with 0.1 N NaOH
[11] = biological target: human serum-derived IgG (manufactured by Sigma-Aldrich Co. LLC); experiment: 1 mL column with 1 mg peptide immobilised, human serum IgG, 10% breakthrough; 5 washes with 0.1 N NaOH
[12] = biological target: human serum-derived IgG (manufactured by Sigma-Aldrich Co. LLC); experiment: 1 mL column with 1 mg peptide immobilised, human serum IgG, 10% breakthrough; 10 washes with 0.1 N NaOH
[13] = biological target: human serum-derived IgG (manufactured by Sigma-Aldrich Co. LLC); experiment: 1 mL column with 1 mg peptide immobilised, human serum IgG 1 mg/mL at 1 mL/min; 2 washes with 0.1 N NaOH
[14] = biological target: human serum-derived IgG (manufactured by Sigma-Aldrich Co. LLC); experiment: 1 mL column with 1 mg peptide immobilised, human serum IgG 1 mg/mL at 1 mL/min; 5 washes with 0.1 N NaOH
[15] = biological target: human serum-derived IgG (manufactured by Sigma-Aldrich Co. LLC); experiment: 1 mL column with 1 mg peptide immobilised, human serum IgG 1 mg/mL at 1 mL/min; 10 washes with 0.1 N NaOH
human IgG1 (human) [16] = experiment: SPR, BIAcore T200, IgG immobilised on CM5 chip; the text value differs from Table 1 (8.0)
[17] = biological target: human serum-derived IgG (manufactured by Sigma-Aldrich Co. LLC); experiment: 1 mL column with 1 mg peptide immobilised, human serum IgG; 3 washes with 0.1 N NaOH
[18] = biological target: human serum-derived IgG (manufactured by Sigma-Aldrich Co. LLC); experiment: 1 mL column with 1 mg peptide immobilised, human serum IgG; 4 washes with 0.1 N NaOH
[19] = biological target: human serum-derived IgG (manufactured by Sigma-Aldrich Co. LLC); experiment: 1 mL column with 1 mg peptide immobilised, human serum IgG; 20 washes with 0.1 N NaOH
[20] = biological target: human serum-derived IgG (manufactured by Sigma-Aldrich Co. LLC); experiment: 1 mL column with 1 mg peptide immobilised, human serum IgG; 30 washes with 0.1 N NaOH
[21] = biological target: human serum-derived IgG (manufactured by Sigma-Aldrich Co. LLC); experiment: 1 mL column with 1 mg peptide immobilised, human serum IgG, 10% breakthrough; 3 washes with 0.1 N NaOH
[22] = biological target: human serum-derived IgG (manufactured by Sigma-Aldrich Co. LLC); experiment: 1 mL column with 1 mg peptide immobilised, human serum IgG, 10% breakthrough; 4 washes with 0.1 N NaOH
[23] = biological target: human serum-derived IgG (manufactured by Sigma-Aldrich Co. LLC); experiment: 1 mL column with 1 mg peptide immobilised, human serum IgG, 10% breakthrough; 20 washes with 0.1 N NaOH
[24] = biological target: human serum-derived IgG (manufactured by Sigma-Aldrich Co. LLC); experiment: 1 mL column with 1 mg peptide immobilised, human serum IgG, 10% breakthrough; 30 washes with 0.1 N NaOH
[25] = biological target: human serum-derived IgG (manufactured by Sigma-Aldrich Co. LLC); experiment: 1 mL column with 1 mg peptide immobilised, human serum IgG 1 mg/mL at 1 mL/min; 3 washes with 0.1 N NaOH
[26] = biological target: human serum-derived IgG (manufactured by Sigma-Aldrich Co. LLC); experiment: 1 mL column with 1 mg peptide immobilised, human serum IgG 1 mg/mL at 1 mL/min; 4 washes with 0.1 N NaOH
[27] = biological target: human serum-derived IgG (manufactured by Sigma-Aldrich Co. LLC); experiment: 1 mL column with 1 mg peptide immobilised, human serum IgG 1 mg/mL at 1 mL/min; 20 washes with 0.1 N NaOH
[28] = biological target: human serum-derived IgG (manufactured by Sigma-Aldrich Co. LLC); experiment: 1 mL column with 1 mg peptide immobilised, human serum IgG 1 mg/mL at 1 mL/min; 30 washes with 0.1 N NaOH

| Molecule | fold reduction of affinity against the original peptide (human IgG1 (human) [1]) | DBC relative to the original IgG-binding peptide-immobilized column [2] | Kd (human IgG1 (human) [3]) | Variation (%) in maximum binding capacity [4] | Variation (%) in maximum binding capacity [5] | Variation (%) in maximum binding capacity [6] | Variation (%) in maximum binding capacity [7] | Dynamic binding capacity [8] | Variation (%) in dynamic binding capacity [8] | Maximum binding capacity [9] | Dynamic binding capacity [10] | Variation (%) in dynamic binding capacity [10] | Dynamic binding capacity [11] | Variation (%) in dynamic binding capacity [11] | Dynamic binding capacity [12] | Variation (%) in dynamic binding capacity [12] | Maximum binding capacity [13] | Maximum binding capacity [14] | Maximum binding capacity [15] | also measured |
| --- | --- | --- | --- | --- | --- | --- | --- | --- | --- | --- | --- | --- | --- | --- | --- | --- | --- | --- | --- | --- |
| CC(C)C[C@@H]1NC(=O)[C@H](CCC(=O)O)NC(=O)CNC(=O)[C@H](CCCNC(=N)N)NC(=O)[C@H](Cc2c[nH]cn2)NC(=O)[C@H](Cc2ccc(O)cc2)NC(=O)[C@H](C)NC(=O)[C@@H](NC(=O)[C@H](CC(=O)O)NC(=O)[C@@H]2CCCN2C(=O)CNC(=O)[C@H](CO)NC(=O)CNC(=O)CNC(=O)[C@H](CO)NC(=O)CN)CSCC(=O)CSC[C@@H](C(=O)N[C@H](C(=O)N[C@@H](Cc2ccccc2)C(=O)N[C@@H](Cc2c[nH]cn2)C(=O)O)[C@@H](C)O)NC(=O)[C@H](Cc2c[nH]c3ccccc23)NC(=O)[C@H](C(C)C)NC1=O [IgG-BP-LongGS 1,3-dichloroacetone] (H-GSGGSGPDCAYHRGELVWCTFH-OH; linker 9-19 via CH2COCH2; N-terminus and C-terminus assumed) | – | – | – | – | – | – | – | – | – | – | – | – | – | – | – | – | – | – | – | reduction of affinity as compared with the original peptide (human IgG1; Kd relative to original disulfide IgG-binding peptide): about 500 fold; kd (human IgG1; SPR, IgG immobilized on CM5 chip, HBS-EP pH 7.4): 0.005; ka (human IgG1; SPR, IgG immobilized on CM5 chip, HBS-EP pH 7.4, in M-1 s-1 (unit assumed)): 1.00E+03; initial value of DBC of peptide column (human serum-derived IgG): 2.3 mg/mL-column; Kd (IgG): 4900 nM |
| GSGGSGPDCAYHRGELVWCTFH (the thiol groups of the two Cys residues crosslinked with 1,1-dichloropinacolin in place of the disulfide bond; Fmoc removed) [1,1-dichloropinacolin-crosslinked cyclic peptide of IgG-BP-LongGS] | 14 fold | 96% | 112 nM | 100% | 99.8% | 89.8% | 87.1% | 16.7 mg/mL | 100% | 12.1 mg | 17.2 mg/mL | 103% | 16.2 mg/mL | 97.2% | 14.5 mg/mL | 86.6% | 12.1 mg | 10.9 mg | 10.6 mg | – |
| GSGGSGPDCAYHRGELVWCTFH (disulfide 9-19 (inferred); not fully specified) [IgG-BP-LongGS, original IgG-binding peptide having a disulfide bond (GSGGS-…)] | – | – | 8 nM | 100% | – | 49.2% | – | 17.2 mg/mL | 100% | 12.4 mg | – | – | 8.74 mg/mL | 50.7% | – | – | – | 6.09 mg | – | Kd (human IgG1 (human) [16]): 8.2 nM |
| GSGGSGPDCAYHRGELVWCTFH (not fully specified; the thiol groups of the two Cys residues crosslinked with 1,1-dichloroacetone (1,1-Dichloro-2-propanone) in place of the disulfide bond; Fmoc removed) [1,1-dichloroacetone-crosslinked cyclic peptide of IgG-BP-LongGS] | 5 fold | 74% | 45.6 nM | 100% | 100% | 103% | 96.3% | 12.8 mg/mL | 100% | 9.68 mg | 12.8 mg/mL | 100% | 12.4 mg/mL | 96.9% | 12.2 mg/mL | 95.3% | 9.7 mg | 9.93 mg | 9.32 mg | Variation (%) in maximum binding capacity [17]: 102%; Variation (%) in maximum binding capacity [18]: 104%; Variation (%) in maximum binding capacity [19]: 86.3%; Variation (%) in maximum binding capacity [20]: 90.7%; Dynamic binding capacity [21]: 12.2 mg/mL; Variation (%) in dynamic binding capacity [21]: 95.3%; Dynamic binding capacity [22]: 12.2 mg/mL; Variation (%) in dynamic binding capacity [22]: 95.3%; Dynamic binding capacity [23]: 12.4 mg/mL; Variation (%) in dynamic binding capacity [23]: 96.9%; Dynamic binding capacity [24]: 11.6 mg/mL; Variation (%) in dynamic binding capacity [24]: 90.6%; Maximum binding capacity [25]: 9.88 mg; Maximum binding capacity [26]: 10.1 mg; Maximum binding capacity [27]: 8.35 mg; Maximum binding capacity [28]: 8.78 mg |
